This data set deals with the molecule itself. Description: crystal structure; micro-electron diffraction (micro-ED) of M9I microcrystals grown in batch: 6 mg/ml peptide in 1% DMSO mixed 1:1 with 0.1 M sodium phosphate pH 4.6, 1.5 M NaCl, room temperature; 1.05 Å, direct methods.

Experimental findings from publication PMC9556795, “Micro-electron diffraction structure of the aggregation-driving N terminus of Drosophila neuronal protein Orb2A reveals amyloid-like β-sheets” (The Journal of Biological Chemistry, 2022) are described below.

B1: M9I, the first 9 N-terminal residues of Drosophila Orb2A (peptide)
peptide: MYNKFVNFI
notes: Dissolved in 100% DMSO, then diluted in water or buffer; Terminal protecting groups are not mentioned; also called M9I-WT; wildtype M9I; source: synthetic peptide, bought: Genscript (>98% purity)
On to B1, for which the binding result is “binds”.
